Measured values: the supplement of paper PMC12764529
± gives the half width of the 95% confidence interval.

Experiments:
[1] = folding stability dG unfold from trypsin proteolysis; higher = more stable
Procedure, shortened: (§1)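 Unfolding free energy was derived, per protease or combined, against a sequence-predicted unfolded-state K50 and a shared folded-state K50, starting from K50 inferred by Bayesian fitting of sequencing counts. Digestion with trypsin and chymotrypsin was carried out on designed mini-proteins under 80 residues without cysteine in a PA-tagged cDNA display construct. Only designs with AlphaFold2 dimer inter-PAE above 15 were kept.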

[2] = folding stability dG unfold from chymotrypsin proteolysis; higher = more stable
Procedure, shortened: as §1

[3] = folding stability dG unfold (combined trypsin and chymotrypsin); higher = more stable
Procedure, shortened: as §1

Sequence	folding stability dG unfold [1] [kcal/mol]	folding stability dG unfold [2] [kcal/mol]	folding stability dG unfold [3] [kcal/mol]
SAGGSAGGSKLKPFPIKLPGDLSMTIVELPEDPRFIVTVWHPDGDKPIDSIEFEPDEFEANVGSAGGSAGGS [r20_190_TrMRF]	0.285 ± 0.023	0.793 ± 0.033	0.591 ± 0.078
SAGGSAGGSKLTIMVKMDSAEDAEEEARSLLKELGIKPGMKEVKVSMFPRGNEYYAHVEIKFKSAGGSAGGS [r12_7_TrROS]	0.672 ± 0.038	0.759 ± 0.15	0.776 ± 0.12
SAGGSAGGSKPEIRKIKIYTKEGGKKIIPVNGTVIEIDGKKYKVKPNDKIKVPKNVKKIEPEGSAGGSAGGS [r12_779_TrMRF]	-0.395 ± 0.25	0.153 ± 0.19	0.028 ± 0.22
SAGGSAGGSKPEPVKPVKLKVKLPGGEYEVEAVELPKGVVLVRNPADNSLAVITPDRLVVLPLSAGGSAGGS [r12_737_TrMRF]	0.754 ± 0.024	0.0823 ± 0.14	0.468 ± 0.076
SAGGSAGGSKPEYVLRVKIYNEETGELVEEIEITVKSKEEALKALKKLLPKDNVKIEVEILPPSAGGSAGGS [r12_578_TrROS_Hall]	3.34 ± 0.11	3.09 ± 0.25	3.2 ± 0.17
SAGGSAGGSKPIVAPVSVEDLTLEGLKALVDSHPEGEVPIFVTRSDGKPLVITVLPDGELSLDSAGGSAGGS [r12_1054_TrMRF]	0.17 ± 0.019	-1.49 ± 0.31	-0.318 ± 0.076
SAGGSAGGSKPKEIETVTLKLTLKDPETGEEIEVTVELTRVRVDGKEYLILRVTDPDGKEIELSAGGSAGGS [r12_283_TrROS_Hall]	3.13 ± 0.12	4.115 ± 0.039	3.81 ± 0.09
SAGGSAGGSKPNEIKIKKIKIEVKIKKKKVDKEKGEEIYEIEEVKIEIEEITLSKEELEKLLKSAGGSAGGS [r12_723_TrROS_Hall]	1.54 ± 0.097	2.06 ± 0.088	1.94 ± 0.12
SAGGSAGGSKPVLVKVERKEVEVPLPDGTPGKVFVVKVTVLGENEPLAEKTYLFASEEEAKESSAGGSAGGS [r12_461_TrMRF]	0.102 ± 0.076	0.761 ± 0.17	0.595 ± 0.13
SAGGSAGGSKSKKYIEIDFSNLTEIKFNPNTNYATAIFKDKGKIYIAKIHFLPNGKAIAEVFDSAGGSAGGS [r12_839_TrMRF]	1.67 ± 0.054	2.931 ± 0.025	2.68 ± 0.077
SAGGSAGGSKSYEIKEITFDPENNTITIVLVAPDGKIVRTETFKPGEEVVFTFENGEKVTVKASAGGSAGGS [r12_441_TrMRF]	1.99 ± 0.059	2.828 ± 0.008	2.54 ± 0.05
SAGGSAGGSKTVTLTLTLPGKKITFTLTEDGTVRMTVYNEKTGEKVKEITVPAKNLEELLKALSAGGSAGGS [r20_129_TrROS_Hall]	3.02 ± 0.085	4.63 ± 0.064	4.29 ± 0.066
SAGGSAGGSKVLIIEPEENKELAEKIAKELKEKGELGEVEIKTFSSPEEAKEYAKNYDIVITGSAGGSAGGS [r12_679_TrMRF]	-0.0715 ± 0.22	0.528 ± 0.17	0.302 ± 0.14
SAGGSAGGSLDPGEEVKIEITDWHPPNGYYRIKIEFPNGPPIDIWMPPDDPQQMKEQAKDLIKSAGGSAGGS [r20_167_TrROS]	-0.725 ± 0.46	0.372 ± 0.36	0.107 ± 0.23
SAGGSAGGSLEKIKEALKKAGYPPENVVIEVKTLPNGEIVITVKYNGKEIPKEIVEEAIKKLKSAGGSAGGS [r12_175_JUSTAS]	2.69 ± 0.081	3.72 ± 0.08	3.45 ± 0.066
SAGGSAGGSLHPSQPLLVTVEVEVDPETGTVRLRVSVWVPGPRERLLERELEVPLHSLPEGALSAGGSAGGS [r12_145_TrMRF]	1.69 ± 0.039	2.49 ± 0.015	2.25 ± 0.091
SAGGSAGGSLKKGEKVKLRARIYEPGGGKLLAELEIEADVGKAEEIAEELRKAFPGYEVEIELSAGGSAGGS [r12_21_TrMRF]	2.67 ± 0.036	3.24 ± 0.057	3.04 ± 0.07
SAGGSAGGSLNPEKPSVRIRIKVQKPDGSYEEIDIEVPFQDIPDVIDELKKKGYKILSIELEPSAGGSAGGS [r12_986_TrMRF]	4.45 ± 0.18	4.31 ± 0.08	4.37 ± 0.18

Sequence	folding stability dG unfold [1] [kcal/mol]	folding stability dG unfold [2] [kcal/mol]	folding stability dG unfold [3] [kcal/mol]
SAGGSAGGSLSDLPPGVELIAVGDDVVAVRRPDGSVLVFVRERDRVFVRELSPDVSIEEALADSAGGSAGGS [r12_605_TrMRF]	1.32 ± 0.029	1.52 ± 0.068	1.44 ± 0.057
SAGGSAGGSLSLPEGFKLSSLVSVEELPGVLRIYFLDPEKPLLYEVVYDLETGEQTVERIPIGSAGGSAGGS [r12_206_JUSTAS]	2.43 ± 0.065	2.6 ± 0.051	2.5 ± 0.072
SAGGSAGGSLTIRFPEELSPEEAVELAEGLVRELFPEDVPVTVTVVFYDPETGEELTIPAELASAGGSAGGS [r12_1051_TrMRF]	1.49 ± 0.039	1.35 ± 0.025	1.43 ± 0.044
SAGGSAGGSLTVSFPGITLTLETVPGTGKIIATVTFPGGEVRTISSDVPLSELPPVVREALELLSAGGSAGG [r6_749_JUSTAS]	2.72 ± 0.087	2.67 ± 0.051	2.74 ± 0.072
SAGGSAGGSLVLPDDYKVIVREFDLSDVGRAVREVMEEFDVKDALFLAVPLPGKVLLFVVVKESAGGSAGGS [r12_929_TrMRF]	2.95 ± 0.098	2.9 ± 0.076	2.99 ± 0.21
SAGGSAGGSMEELPEGAELIREEDGVAVVRNENGELLVVRRVDGKLEVRRFPPGMSIEEALAKSAGGSAGGS [r12_605_TrROS_Hall]	2.95 ± 0.064	3.07 ± 0.04	3.05 ± 0.045
SAGGSAGGSMELDEDGRLIVRIKVRDKETKEWKEIEIELPGLTEEEIRKLAEELGAEEIEILPSAGGSAGGS [r12_792_TrROS_Hall]	2.35 ± 0.061	2.39 ± 0.083	2.43 ± 0.078
SAGGSAGGSMELVIKTVTVNSPSKSPEELAKEIEEKYGVKILKVEVTEDPEGGVTVTATIINKSAGGSAGGS [r12_359_JUSTAS]	1.72 ± 0.065	1.34 ± 0.015	1.49 ± 0.041
SAGGSAGGSMELVIPKEEVEKMSEEVVKKIKELAKKANISISETEDSLVIPIKKVSEKVIKELSAGGSAGGS [r12_945_JUSTAS]	-0.325 ± 0.075	0.497 ± 0.045	0.232 ± 0.1
SAGGSAGGSMEPRPVVITFRDPEGNFIGTVELPAEFESEEEALAAAEAVRAANPGYTVEIEGLSAGGSAGGS [r20_201_JUSTAS]	1.67 ± 0.084	1.98 ± 0.033	1.87 ± 0.07
SAGGSAGGSMETITLPEDVKVEVVEVEPGSVIEVEFEDGLVARVRIDPENLEKVEIEVFPKEESAGGSAGGS [r12_648_TrROS_Hall]	-0.0965 ± 0.16	0.826 ± 0.16	0.694 ± 0.17
SAGGSAGGSMETRTFDSEEELRASVSVPSSLSVTFERRPGRWEVRIEPPLSPEEIAAQRARLLSAGGSAGGS [r12_274_JUSTAS]	-0.346 ± 0.17	-1.07 ± 0.6	-0.553 ± 0.11
SAGGSAGGSMETTREELPPELTVERVTEREPGEGRITVRVKVYRPDGTLLSEEVVERDPEDLESAGGSAGGS [r12_240_JUSTAS]	0.319 ± 0.053	0.166 ± 0.14	0.295 ± 0.097
SAGGSAGGSMETVTVLLNTPGTPVTFTFPVPAGVGEEAVKELVRKALPEVEIEVVEITTTPAASAGGSAGGS [r12_427_JUSTAS]	0.338 ± 0.073	0.585 ± 0.21	0.463 ± 0.15
SAGGSAGGSMETVVTVPLPDGRTLTITRYPDGTVTVTYPDGTPVATRPVAPDTSDEAVVAALASAGGSAGGS [r12_990_JUSTAS]	0.522 ± 0.016	1.83 ± 0.023	1.54 ± 0.037
SAGGSAGGSMEVTVTPLPDGSLLVTVTVTTSSTPVPVELRFPPSASLEEIRAAAEARAAEVAASAGGSAGGS [r12_69_JUSTAS]	0.883 ± 0.029	1.73 ± 0.025	1.57 ± 0.047
SAGGSAGGSMFKVIVESEDPEKALEEAKALIEKIEEEGIGEIKKFEFLIVPKDIPEYKKLKEKSAGGSAGGS [r12_551_TrMRF]	-0.306 ± 0.45	0.438 ± 0.18	-0.0656 ± 0.3
SAGGSAGGSMGVTVTSEEDPEVRRVRETIETPSGSVVERDMVLTRPPDGPLLREALSEKVFRPSAGGSAGGS [r12_758_JUSTAS]	-0.324 ± 0.15	-1.18 ± 0.48	-0.582 ± 0.28
